Here are results for one molecule from patent US20240034816A1 (Sanofi, published 2024).

Test [1] addresses T1, human CD64 (human FcγRI) (human, UniProt P12314 16-292, limits assumed).
T1 construct: also called HuFcyRI
Nature of the test: SPR, fit 1:1 Binding, Exp No 3. On the technique in general: Surface plasmon resonance follows binding to a sensor surface in real time, without labels.

For test [2], the target named is T2, human CD16a (human FcγRIIIA), V isoform (human, UniProt P08637 17-208).
T2 construct: also called HuFcyRIIIaV; CD16a (V176)
Description: SPR, fit Two State Reaction, Exp No 1.

In test [3] the target is T3, cynomolgus CD16 (cynomolgus, UniProt Q8SPW2 17-208).
T3 construct: also called CyFcyRIII
Description: SPR, fit Two State Reaction, Exp No 2.

For test [4], the target named is T2, human CD16a (human FcγRIIIA), V isoform. Nature of the test: SPR, fit Two State Reaction, Exp No 2.
Test [5] concerns the target T4, cynomolgus CD32a (cynomolgus).
T4 construct: also called CyFcyRIIa
Nature of the test: SPR, fit Steady State Affinity, Exp No 1.

The target of test [6] is T5, cynomolgus CD32b (cynomolgus).
T5 construct: also called CyFcyRIIb
Description: SPR, fit Steady State Affinity, Exp No 1.

Test [7] deals with T6, human CD32a (human FcγRIIA) (human, UniProt P12318 34-217, limits assumed).
T6 construct: also called HuFcyRIIa
T6 sequence (looked up): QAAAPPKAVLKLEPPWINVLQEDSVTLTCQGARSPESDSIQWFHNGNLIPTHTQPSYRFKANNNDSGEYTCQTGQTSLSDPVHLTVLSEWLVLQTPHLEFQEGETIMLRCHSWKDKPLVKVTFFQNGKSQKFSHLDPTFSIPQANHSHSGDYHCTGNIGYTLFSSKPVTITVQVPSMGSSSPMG
Description: SPR, fit Steady State Affinity, Exp No 1.

The target of test [8] is T7, human CD32b (human FcγRIIB) (human, UniProt P31994 43-217, limits assumed).
T7 construct: also called HuFcyRIIb
T7 sequence (looked up): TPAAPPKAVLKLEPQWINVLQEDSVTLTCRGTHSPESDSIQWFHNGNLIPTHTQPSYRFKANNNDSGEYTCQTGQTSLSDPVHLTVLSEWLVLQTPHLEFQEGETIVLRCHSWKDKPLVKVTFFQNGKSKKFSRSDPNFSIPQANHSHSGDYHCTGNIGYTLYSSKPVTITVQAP
Description: SPR, fit Steady State Affinity, Exp No 1.

In test [9] the target is T8, human CD16b (human FcgRIIIB) (human, UniProt O75015 17-200, limits assumed).
T8 construct: also called HuFcyRIIIb
Nature of the test: SPR, fit Steady State Affinity, Exp No 1.

The target of test [10] is T4, cynomolgus CD32a. Nature of the test: SPR, fit Steady State Affinity, Exp No 2.
Test [11] has as its target T5, cynomolgus CD32b. Nature of the test: SPR, fit Steady State Affinity, Exp No 2.
Test [12] concerns the target T6, human CD32a (human FcγRIIA). Nature of the test: SPR, fit Steady State Affinity, Exp No 2.
The target in test [13] is T7, human CD32b (human FcγRIIB). Description: SPR, fit Steady State Affinity, Exp No 2.
The target of test [14] is T8, human CD16b (human FcgRIIIB). Nature of the test: SPR, fit Steady State Affinity, Exp No 2.
In test [15] the target is T3, cynomolgus CD16. Nature of the test: SPR, fit Two State Reaction, mean of 3 experiments.
Test [16] deals with T2, human CD16a (human FcγRIIIA), V isoform. Description: SPR, fit Two State Reaction, mean of 3 experiments.
The target in test [17] is T4, cynomolgus CD32a. Description: SPR, fit Steady State Affinity, mean of 3 experiments.
In test [18] the target is T5, cynomolgus CD32b. The description is as above.
Test [19] has as its target T6, human CD32a (human FcγRIIA). The test is described as above.
The target in test [20] is T7, human CD32b (human FcγRIIB). The test is described as above.
The target in test [21] is T8, human CD16b (human FcgRIIIB). Described as above.
Test [22] has as its target T9, human BCMA on RPMI 8226 multiple myeloma cells (human, UniProt Q02223 1-184).
T9 construct: whole, on cells; also called BCMA on RPMI cells
T9 sequence (looked up): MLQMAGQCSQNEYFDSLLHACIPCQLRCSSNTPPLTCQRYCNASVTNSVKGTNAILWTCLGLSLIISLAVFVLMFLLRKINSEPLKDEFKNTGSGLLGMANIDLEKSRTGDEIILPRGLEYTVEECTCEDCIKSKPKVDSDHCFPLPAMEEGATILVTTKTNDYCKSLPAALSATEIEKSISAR
Description: flow cytometry titration on RPMI 8226 cells, detection with goat anti-human IgG Fcγ-PE; representative titration. Here is the method: (§1) After staining, cells were resuspended in BD Cellfix and analyzed by flow cytometry. Parameters were recorded and analysed with FlowJo software. Staining EC50 values were calculated with GraphPad prism using 4 parameter logistics non-linear regression model.

Test [23] deals with T10, human NKp46 on NK cells purified from PBMC of healthy donors (human, UniProt O76036 22-304).
T10 construct: whole, on cells; also called NKp46 on donor NK cells
Description: flow cytometry titration on resting human NK cells from healthy donors, detection with goat anti-human IgG Fcγ-PE; representative titration; NK cells also carry CD16a. As to the method: as §1
In general terms: In flow cytometry, cells or beads pass a laser one at a time.

Test [24] deals with T10, human NKp46 on NK cells purified from …. Description: flow cytometry titration on resting human NK cells from healthy donors, detection with goat anti-human IgG Fcγ-PE, 4-parameter fit; mean of 3 NK donors; NK cells also carry CD16a. Here is the method:
as §1

T2 sequence (P08637 17-208 F176V limits assumed): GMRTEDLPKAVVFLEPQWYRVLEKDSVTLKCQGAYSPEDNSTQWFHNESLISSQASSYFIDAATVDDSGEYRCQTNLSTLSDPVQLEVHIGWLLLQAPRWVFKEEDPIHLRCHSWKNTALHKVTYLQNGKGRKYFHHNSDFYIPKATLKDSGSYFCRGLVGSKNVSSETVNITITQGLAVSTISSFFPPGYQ
T8 sequence (O75015 17-200 limits assumed): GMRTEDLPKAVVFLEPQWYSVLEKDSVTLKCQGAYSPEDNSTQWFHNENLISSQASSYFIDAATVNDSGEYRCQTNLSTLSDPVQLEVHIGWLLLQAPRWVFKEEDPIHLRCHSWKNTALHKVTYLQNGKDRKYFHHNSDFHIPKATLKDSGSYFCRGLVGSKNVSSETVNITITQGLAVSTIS
T3 sequence (Q8SPW2 17-208): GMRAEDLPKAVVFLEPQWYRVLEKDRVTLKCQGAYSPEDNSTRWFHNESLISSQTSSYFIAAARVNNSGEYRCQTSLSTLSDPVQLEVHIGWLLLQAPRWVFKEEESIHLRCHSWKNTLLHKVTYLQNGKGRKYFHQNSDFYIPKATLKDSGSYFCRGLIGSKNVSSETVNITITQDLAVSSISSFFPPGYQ
T10 sequence (O76036 22-304): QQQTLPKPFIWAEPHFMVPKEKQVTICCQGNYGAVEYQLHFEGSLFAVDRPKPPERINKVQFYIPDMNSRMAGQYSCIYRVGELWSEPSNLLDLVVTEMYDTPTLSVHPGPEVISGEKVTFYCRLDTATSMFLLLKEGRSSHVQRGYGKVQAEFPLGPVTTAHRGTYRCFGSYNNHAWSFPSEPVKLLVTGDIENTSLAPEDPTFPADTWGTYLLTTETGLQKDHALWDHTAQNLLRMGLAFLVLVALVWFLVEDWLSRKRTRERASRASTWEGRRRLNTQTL
T1 sequence (P12314 16-292 limits assumed): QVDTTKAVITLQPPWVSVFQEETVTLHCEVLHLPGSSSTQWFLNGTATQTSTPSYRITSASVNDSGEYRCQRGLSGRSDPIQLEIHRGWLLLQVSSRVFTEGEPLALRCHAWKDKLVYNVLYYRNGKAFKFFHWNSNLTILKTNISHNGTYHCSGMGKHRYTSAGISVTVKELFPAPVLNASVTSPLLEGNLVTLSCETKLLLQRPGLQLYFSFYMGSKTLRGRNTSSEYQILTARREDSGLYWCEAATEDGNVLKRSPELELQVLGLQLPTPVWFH

B1: NKp46-BCMA_Fc-ADE-DSB NKCE (bispecific antibody, human IgG1, kappa)
light: QTVVTQEPSLTVSPGGTVTLTCASSTGTVTPSNYANWVQQKPGQAFRGLIGDNNSRPPGTPARFSASLLGGKAALTLSGVQPEDEAEYYCALWFGNQWVFGGGTKLTVLGGGGSGGGGSDIQMTQSPSSLSASVGDRVTITCRASQDISNYLNWYQQKPGKAPKLLIYYTSRLHSGVPSRFSGSGSGTDFTFTISSLQPEDIATYFCQQGNTRPWTFGGGTKVEIKGGGGSGGGGSRTVAAPSVFIFPPSDEQLKSGTASVVCLLNNFYPREAKVQWKVDNALQSGNSQESVTEQDSKDSTYSLSSTLTLSKADYEKHKVYACEVTHQGLSSPVTKSFNRGEC
heavy: QVQLVQSGAEVKKPGSSVKVSCKASGYTFSDYVINWVRQAPGQGLEWMGEIYPGSGTNYYNEKFKAKATITADKSTSTAYMELSSLRSEDTAVYYCARRGRYGLYAMDYWGQGTTVTVSSQVQLVESGGGVVQPGRSLRLSCAASGFTFSNFGMHWVRQAPGRGLEWVAVIWSDETNRYYADSVKGRFTVSRDNVKSTVYLQMNSLISEDTAVYYCARDQQYCSSDSCFTWFDPWGQGTLVTVSSASTKGPSVFPLAPSSKSTSGGTAALGCLVKDYFPEPVTVSWNSGALTSGVHTFPAVLQSSGLYSLSSVVTVPSSSLGTQTYICNVNHKPSNTKVDKKVEPKSCDKTHTCPPCPAPELLAGPDVFLFPPKPKDTLMISRTPEVTCVVVDVSHEDPEVKFNWYVDGVEVHNAKTKPCEEQYNSTYRCVSVLTVLHQDWLNGKEYKCKVSNKALPAPEEKTISKAKGQPREPQVYTLPPCRDELTKNQVSLWCLVKGFYPSDIAVEWESNGQPENNYKTTPPVLDSDGSFFLYSKLTVDKSRWQQGNVFSCSVMHEALHNHYTQKSLSLSPG
chain: DKTHTCPPCPAPELLAGPDVFLFPPKPKDTLMISRTPEVTCVVVDVSHEDPEVKFNWYVDGVEVHNAKTKPCEEQYNSTYRCVSVLTVLHQDWLNGKEYKCKVSNKALPAPEEKTISKAKGQPREPQVCTLPPSRDELTKNQVSLSCAVKGFYPSDIAVEWESNGQPENNYKTTPPVLDSDGSFFLVSKLTVDKSRWQQGNVFSCSVMHEALHNRFTQKSLSLSPG
As to B1, the equilibrium dissociation constant (Kd) (in general, a measure of binding affinity in units of concentration) in test [1] stood at 0.38 nM; in test [2], 11.7 nM; in [3], 9.3 nM; in test [4] it was 12.1 nM; in test [5] it was 1350 nM; in test [6] it was 884 nM. The dissociation constant (Kd) in [7] amounted to 415 nM; in [8], 1350 nM; in [9] it was 1260 nM; in test [10] it was 1440 nM; in [11], 1070 nM; in test [12] it was 656 nM. Moreover, the Kd in test [13] was determined as 1060 nM; in [14], 1690 nM; in test [15], 11.7 nM; in [16], 13.4 nM; in [17], 1500 nM; in test [18], 1080 nM. The equilibrium dissociation constant (Kd) in [19] turned out to be 678 nM; in [20] it was 1280 nM; in [21], 1760 nM. The half-maximal effective concentration (EC50 (read off the curve)) (usually the concentration needed to bring the measured effect to its halfway point) was approximately 1 µg/mL in test [22] and approximately 0.9 µg/mL in test [23]. In addition, in test [24], the EC50 (commonly the concentration that produces a half-maximal response) turned out to be 0.643 µg/mL.
